According to paper PMC10397247:

Key:
Experiment in all cases: two-hybrid library CCNG1;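 further: natural log of median RNA to DNA barcode read ratio; higher means stronger binding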
4H570-bA = molecular target: T1, 4H570-bA
T1 chain: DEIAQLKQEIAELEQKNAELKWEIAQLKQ

4H3631-bA = molecular target: T2, 4H3631-bA
T2 chain: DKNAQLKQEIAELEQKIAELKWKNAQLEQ

4H3414-bA = molecular target: T3, 4H3414-bA
T3 chain: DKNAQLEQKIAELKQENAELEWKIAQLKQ

4H3817-bA = molecular target: T4, 4H3817-bA
T4 chain: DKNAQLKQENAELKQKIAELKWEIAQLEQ

4H619-bA = molecular target: T5, 4H619-bA
T5 chain: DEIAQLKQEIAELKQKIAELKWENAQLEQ

4H850-bA = molecular target: T6, 4H850-bA
T6 chain: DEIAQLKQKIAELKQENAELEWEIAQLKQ

4H3974-bA = molecular target: T7, 4H3974-bA
T7 chain: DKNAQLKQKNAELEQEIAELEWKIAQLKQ

4H584-bA = molecular target: T8, 4H584-bA
T8 chain: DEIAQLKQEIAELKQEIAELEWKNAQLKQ

4H906-bA = molecular target: T9, 4H906-bA
T9 chain: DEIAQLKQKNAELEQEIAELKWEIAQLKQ

4H3638-bA = molecular target: T10, 4H3638-bA
T10 chain: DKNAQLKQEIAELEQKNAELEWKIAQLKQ

4H575-bA = molecular target: T11, 4H575-bA
T11 chain: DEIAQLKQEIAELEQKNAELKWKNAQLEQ

4H3354-bA = molecular target: T12, 4H3354-bA
T12 chain: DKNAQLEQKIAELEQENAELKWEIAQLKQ

4H780-bA = molecular target: T13, 4H780-bA
T13 chain: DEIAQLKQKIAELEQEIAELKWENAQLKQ

4H754-bA = molecular target: T14, 4H754-bA
T14 chain: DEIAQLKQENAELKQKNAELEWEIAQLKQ

4H908-bA = molecular target: T15, 4H908-bA
T15 chain: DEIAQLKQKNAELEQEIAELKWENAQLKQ

4H967-bA = molecular target: T16, 4H967-bA
T16 chain: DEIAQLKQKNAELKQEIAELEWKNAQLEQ

4H607-bA = molecular target: T17, 4H607-bA
T17 chain: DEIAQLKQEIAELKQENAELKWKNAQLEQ

4H454-bA = molecular target: T18, 4H454-bA
T18 chain: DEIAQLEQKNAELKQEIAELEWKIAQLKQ

4H855-bA = molecular target: T19, 4H855-bA
T19 chain: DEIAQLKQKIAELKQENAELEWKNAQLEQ

4H331-bA = molecular target: T20, 4H331-bA
T20 chain: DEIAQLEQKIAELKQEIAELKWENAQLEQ

4H3185-bA = molecular target: T21, 4H3185-bA
T21 chain: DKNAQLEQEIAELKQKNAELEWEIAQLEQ

4H3112-bA = molecular target: T22, 4H3112-bA
T22 chain: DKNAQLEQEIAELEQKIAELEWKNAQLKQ

4H457-bA = molecular target: T23, 4H457-bA
T23 chain: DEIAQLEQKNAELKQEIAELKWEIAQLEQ

4H717-bA = molecular target: T24, 4H717-bA
T24 chain: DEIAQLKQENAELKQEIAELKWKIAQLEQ

4H683-bA = molecular target: T25, 4H683-bA
T25 chain: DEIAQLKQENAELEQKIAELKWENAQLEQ

4H72-bA = molecular target: T26, 4H72-bA
T26 chain: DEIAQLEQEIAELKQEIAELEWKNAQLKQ

4H3926-bA = molecular target: T27, 4H3926-bA
T27 chain: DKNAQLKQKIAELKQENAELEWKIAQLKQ

4H338-bA = molecular target: T28, 4H338-bA
T28 chain: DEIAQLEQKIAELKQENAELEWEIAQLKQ

4H3782-bA = molecular target: T29, 4H3782-bA
T29 chain: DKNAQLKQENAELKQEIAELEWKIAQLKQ

4H346-bA = molecular target: T30, 4H346-bA
T30 chain: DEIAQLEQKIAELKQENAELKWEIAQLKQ

4H968-bA = molecular target: T31, 4H968-bA
T31 chain: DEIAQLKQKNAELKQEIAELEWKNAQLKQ

4H568-bA = molecular target: T32, 4H568-bA
T32 chain: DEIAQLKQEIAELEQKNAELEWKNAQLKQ

4H687-bA = molecular target: T33, 4H687-bA
T33 chain: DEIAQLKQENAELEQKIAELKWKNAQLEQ

4H883-bA = molecular target: T34, 4H883-bA
T34 chain: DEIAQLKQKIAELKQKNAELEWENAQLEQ

4H953-bA = molecular target: T35, 4H953-bA
T35 chain: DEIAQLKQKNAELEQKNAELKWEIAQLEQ

4H918-bA = molecular target: T36, 4H918-bA
T36 chain: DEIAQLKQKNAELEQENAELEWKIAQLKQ

4H4001-bA = molecular target: T37, 4H4001-bA
T37 chain: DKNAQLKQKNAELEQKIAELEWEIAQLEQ

4H3855-bA = molecular target: T38, 4H3855-bA
T38 chain: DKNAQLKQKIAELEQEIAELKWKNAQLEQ

4H4073-bA = molecular target: T39, 4H4073-bA
T39 chain: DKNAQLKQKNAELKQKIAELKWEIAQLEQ

4H3427-bA = molecular target: T40, 4H3427-bA
T40 chain: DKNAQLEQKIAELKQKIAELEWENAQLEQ

4H797-bA = molecular target: T41, 4H797-bA
T41 chain: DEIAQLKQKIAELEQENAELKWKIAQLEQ

O5-bH = molecular target: T42, O5-bH
T42 chain: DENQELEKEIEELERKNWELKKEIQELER

O7-bH = molecular target: T43, O7-bH
T43 chain: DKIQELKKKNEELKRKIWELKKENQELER

O8-bH = molecular target: T44, O8-bH
T44 chain: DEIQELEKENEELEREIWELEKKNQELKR

O6-bH = molecular target: T45, O6-bH
T45 chain: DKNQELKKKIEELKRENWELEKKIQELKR

O9-bH = molecular target: T46, O9-bH
T46 chain: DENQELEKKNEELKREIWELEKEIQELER

O4-bH = molecular target: T47, O4-bH
T47 chain: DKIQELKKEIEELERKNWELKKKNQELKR

**Q.** What does the source list for DKNAQLEQKIAELKQENAELEWKIAQLKQ [4H3414-bA]?
**A.** interaction score (4H570-bA): 0.386; interaction score (4H3631-bA): 0.00557; interaction score (4H3414-bA): 0.915; interaction score (4H3817-bA): 0.381; interaction score (4H619-bA): -1.25; interaction score (4H850-bA): -0.866; interaction score (4H3974-bA): -0.77; interaction score (4H584-bA): -0.456; interaction score (4H906-bA): -0.43; interaction score (4H3638-bA): 1.02

**Q.** DKNAQLEQEIAELEQKIAELEWKNAQLKQ [4H3112-bA] was tested. Which interaction score (4H575-bA) did it give?
**A.** -0.587

**Q.** What about the interaction score (4H3354-bA) of the same binder?
**A.** 0.000615

**Q.** What about the interaction score (4H780-bA) of the same binder?
**A.** -0.567

**Q.** What about the interaction score (4H754-bA) of the same binder?
**A.** -0.483

**Q.** What about the interaction score (4H908-bA) of the same binder?
**A.** 0.0545

**Q.** And the interaction score (4H967-bA)?
**A.** -0.715

**Q.** And the interaction score (4H607-bA)?
**A.** -0.643

**Q.** What about the interaction score (4H454-bA) of the same binder?
**A.** -1.72

**Q.** And the interaction score (4H855-bA)?
**A.** 1.01

**Q.** And the interaction score (4H331-bA)?
**A.** 0.496

**Q.** What about the interaction score (4H3185-bA) of the same binder?
**A.** 0.447

**Q.** And the interaction score (4H3112-bA)?
**A.** 1.17

**Q.** What about the interaction score (4H457-bA) of the same binder?
**A.** -0.509

**Q.** What about the interaction score (4H717-bA) of the same binder?
**A.** 0.267

**Q.** What about the interaction score (4H683-bA) of the same binder?
**A.** -0.379

**Q.** And the interaction score (4H72-bA)?
**A.** -0.233

**Q.** What about the interaction score (4H3926-bA) of the same binder?
**A.** -0.342

**Q.** And the interaction score (4H338-bA)?
**A.** -0.842

**Q.** And the interaction score (4H3782-bA)?
**A.** -0.731

**Q.** What about the interaction score (4H346-bA) of the same binder?
**A.** -0.0408

**Q.** And the interaction score (4H968-bA)?
**A.** -1.09

**Q.** What about the interaction score (4H568-bA) of the same binder?
**A.** -1.31

**Q.** What about the interaction score (4H687-bA) of the same binder?
**A.** -1.13

**Q.** What about the interaction score (4H883-bA) of the same binder?
**A.** 0.791

**Q.** And the interaction score (4H953-bA)?
**A.** -0.984

**Q.** What about the interaction score (4H918-bA) of the same binder?
**A.** -1.88

**Q.** And the interaction score (4H4001-bA)?
**A.** -0.41

**Q.** And the interaction score (4H3855-bA)?
**A.** -0.227

**Q.** What about the interaction score (4H4073-bA) of the same binder?
**A.** 1.32

**Q.** What about the interaction score (4H3427-bA) of the same binder?
**A.** 1.55

**Q.** And the interaction score (4H797-bA)?
**A.** 0.364

**Q.** With DKIQELKKEIEELERKNWELKKKNQELKR [O4-bH] as the binder, how does the interaction score (O5-bH) read?
**A.** -1.47

**Q.** What about the interaction score (O7-bH) of the same binder?
**A.** 0.376

**Q.** And the interaction score (O8-bH)?
**A.** 1.07

**Q.** What about the interaction score (O6-bH) of the same binder?
**A.** 0.0257

**Q.** What about the interaction score (O9-bH) of the same binder?
**A.** -2.1

**Q.** What about the interaction score (O4-bH) of the same binder?
**A.** -1.04
